Biological target: apo-hTf-Sepharose 4B (human apo-transferrin coupled to Sepharose 4B) (human, UniProt P02787 20-698, coupled to Sepharose 4B)
Assay: affinity chromatography of solubilized membranes on apo-hTf-Sepharose 4B

Chain of apo-hTf-Sepharose 4B (human apo-transferrin coupled to Sepharose 4B) (P02787 20-698 limits assumed): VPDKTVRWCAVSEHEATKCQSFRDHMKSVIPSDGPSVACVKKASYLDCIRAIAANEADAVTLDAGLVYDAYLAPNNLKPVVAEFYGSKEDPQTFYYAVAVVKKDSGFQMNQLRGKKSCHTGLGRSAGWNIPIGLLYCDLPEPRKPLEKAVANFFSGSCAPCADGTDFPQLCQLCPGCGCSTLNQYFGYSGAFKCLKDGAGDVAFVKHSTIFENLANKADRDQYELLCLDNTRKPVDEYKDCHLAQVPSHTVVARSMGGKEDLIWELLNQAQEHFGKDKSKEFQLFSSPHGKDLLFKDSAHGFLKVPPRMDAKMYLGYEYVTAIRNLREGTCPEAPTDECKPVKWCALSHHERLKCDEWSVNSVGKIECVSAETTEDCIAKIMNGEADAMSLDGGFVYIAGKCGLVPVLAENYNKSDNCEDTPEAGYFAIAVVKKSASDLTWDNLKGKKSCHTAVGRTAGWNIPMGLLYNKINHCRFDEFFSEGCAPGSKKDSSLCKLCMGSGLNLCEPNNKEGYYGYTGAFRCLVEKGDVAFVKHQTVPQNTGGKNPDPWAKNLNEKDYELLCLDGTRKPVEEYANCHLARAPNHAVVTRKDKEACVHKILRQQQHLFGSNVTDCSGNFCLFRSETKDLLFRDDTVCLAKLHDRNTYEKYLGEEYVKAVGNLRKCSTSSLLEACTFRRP

B1: Native Tbp2 (4223) (receptor)
chain: CGGSGGSNPPAPTPIPNASGSGNTGNTGNAGGTDNTANAGNTGGTNSGTGSANTPEPKYQDVPTEKNEKDKVSSIQEPAMGYGMALSKINLHNRQDTPLDEKNIITLDGKKQVAEGKKSPLPFSLDVENKLLDGYIAKMNVADKNAIGDRIKKGNKEISDEELAKQIKEAVRKSHEFQQVLSSLENKIFHSNDGTTKATTRDLKYVDYGYYLANDGNYLTVKTDKLWNLGPVGGVFYNGTTTAKELPTQDAVKYKGHWDFMTDVANRRNRFSEVKENSQAGWYYGASSKDEYNRLLTKEDSAPDGHSGEYGHSSEFTVNFKEKKLTGKLFSNLQDRHKGNVTKTERYDIDANIHGNRFRGSATASNKNDTSKHPFTSDANNRLEGGFYGPKGEELAGKFLTNDNKLFGVFGAKRESKAEEKTEAILDAYALGTFNTSNATTFTPFTEKQLDNFGNAKKLVLGSTVIDLVPTDATKNEFTKDKPESATNEAGETLMVNDEVSVKTYGKNFEYLKFGELSIGGSHSVFLQGERTATTGEKAVPTTGTAKYLGNWVGYITGKDTGTGTGKSFTDAQDVADFDIDFGNKSVSGKLITKGRQDPVFSITGQIAGNGWTGTASTTKADAGGYKIDSSSTGKSIVIKDANVTGGFYGPNANEMGGSFTHNADDSKASVVFGTKRQQEVK
  binding result: binds
